Publication PMC11452399 (Nature Communications, 2024)

Target: human ferritin heavy chain (FTH1) (human, UniProt P02794)
Assay: ELISA

Chain of human ferritin heavy chain (FTH1) (P02794 whole entry): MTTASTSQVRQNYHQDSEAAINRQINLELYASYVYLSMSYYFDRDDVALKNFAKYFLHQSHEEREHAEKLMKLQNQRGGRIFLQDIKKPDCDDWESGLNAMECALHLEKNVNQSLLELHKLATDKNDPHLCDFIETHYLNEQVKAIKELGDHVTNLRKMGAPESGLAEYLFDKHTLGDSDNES

DSFQVIKNSPLSEWLI [GST-Peptide WT (NCOA4 484-499)]
EC50: 288 nM
